Experimental data published in publication PMC11514443 (Structure (London, England : 1993), 2019).

Molecular target: MORC3-CW E431A mutant (human) (UniProt Q14149)
Assay: other fluorescence titration

MORC3-CW E431A mutant (human), sequence (Q14149 401-455 E431A): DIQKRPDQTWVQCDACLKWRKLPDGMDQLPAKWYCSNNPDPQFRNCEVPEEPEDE

With “NS1 peptide trimethylated at K229 (residues 222-230 of NS1)” the Kd was 57 µM.
